The conditions of this series: Escherichia coli (strain K12); pH 7; Thermal; DSC; phosphate 50 mM; whole UniProt chain shown.

The term Tm denotes the temperature at the midpoint of the melting transition.

B1: Outer membrane porin C wild type, P06996 (protein)
chain: MKVKVLSLLVPALLVAGAANAAEVYNKDGNKLDLYGKVDGLHYFSDNKDVDGDQTYMRLGFKGETQVTDQLTGYGQWEYQIQGNSAENENNSWTRVAFAGLKFQDVGSFDYGRNYGVVYDVTSWTDVLPEFGGDTYGSDNFMQQRGNGFATYRNTDFFGLVDGLNFAVQYQGKNGNPSGEGFTSGVTNNGRDALRQNGDGVGGSITYDYEGFGIGGAISSSKRTDAQNTAAYIGNGDRAETYTGGLKYDANNIYLAAQYTQTYNATRVGSLGWANKAQNFEAVAQYQFDFGLRPSLAYLQSKGKNLGRGYDDEDILKYVDVGATYYFNKNMSTYVDYKINLLDDNQFTRDAGINTDNIVALGLVYQF
Regarding B1, the melting temperature (Tm) is 87 °C and the “unfolding enthalpy (calorimetric)” value is 328 kcal/mol.

Source of the values: FireProtDB (doi:10.1021/bi100877y).
